Measurements published in IntAct's records for PubMed 16247757.

B1: Lamina-associated polypeptide 2, isoform alpha (Homo sapiens), P42166 (parent)
chain: MPEFLEDPSVLTKDKLKSELVANNVTLPAGEQRKDVYVQLYLQHLTARNRPPLPAGTNSKGPPDFSSDEEREPTPVLGSGAAAAGRSRAAVGRKATKKTDKPRQEDKDDLDVTELTNEDLLDQLVKYGVNPGPIVGTTRKLYEKKLLKLREQGTESRSSTPLPTISSSAENTRQNGSNDSDRYSDNEEGKKKEHKKVKSTRDIVPFSELGTTPSGGGFFQGISFPEISTRPPLGSTELQAAKKVHTSKGDLPREPLVATNLPGRGQLQKLASERNLFISCKSSHDRCLEKSSSSSSQPEHSAMLVSTAASPSLIKETTTGYYKDIVENICGREKSGIQPLCPERSHISDQSPLSSKRKALEESESSQLISPPLAQAIRDYVNSLLVQGGVGSLPGTSNSMPPLDVENIQKRIDQSKFQETEFLSPPRKVPRLSEKSVEERDSGSFVAFQNIPGSELMSSFAKTVVSHSLTTLGLEVAKQSQHDKIDASELSFPFHESILKVIEEEWQQVDRQLPSLACKYPVSSREATQILSVPKVDDEILGFISEATPLGGIQAASTESCNQQLDLALCRAYEAAASALQIATHTAFVAKAMQADISQAAQILSSDPSRTHQALGILSKTYDAASYICEAAFDEVKMAAHTMGNATVGRRYLWLKDCKINLASKNKLASTPFKGGTLFGGEVCKVIKKRGNKH

Variants of: B1
Details: with lmna_human LMNA

effect of a mutation on the interaction | Variant
decreasing interaction | R690C
